Paper PMC3095670
Where two headings read alike, the source gives them in different places.

Key:
[1] = target: T1, DNA polymerase beta 8-kDa domain (isolated) (rat, UniProt P06766 1-87); experiment: FRET
[2] = target: T2, DNA polymerase beta, intact (rat, UniProt P06766 1-335); experiment: fluorescence titration
[3] = target: T2, DNA polymerase beta, intact; experiment: fluorescence titration; remark: listed apart in the source
[4] = target: T1, DNA polymerase beta 8-kDa domain …; experiment: fluorescence titration

B1: 5'-Fl-dT(pT)19-CP-3' (ssDNA)
DNA: TTTTTTTTTTTTTTTTTTTT
B1: binds [1].

B2: dεA(pεA)13 (ssDNA)
DNA: AAAAAAAAAAAAAA
modifications: all adenines 1,N6-etheno-A (chloroacetaldehyde)
B2: binds [2].

B3: dεA(pεA)19 (ssDNA)
DNA: AAAAAAAAAAAAAAAAAAAA
modifications: all adenines 1,N6-etheno-A (chloroacetaldehyde)
B3: binds [3].

B4: dεA(pεA)9 (ssDNA)
DNA: AAAAAAAAAA
modifications: all adenines 1,N6-etheno-A (chloroacetaldehyde)
B4: binds [4].
